Experimental data published in paper PMC5454392, “Selective BET bromodomain inhibition as an antifungal therapeutic strategy” (Nature Communications, 2017).
Numbered stars: 1 amine (or outer) side, 2 acyl side, 3 side chain; on linkers, the order of the positions; unused ones are H or OH. Square brackets hold non-standard residues; d marks the D form. Ends that are not written are not given here. Arg(Me2a) = CN(C)C(=N)NCCC[C@H](N)C(=O)O; Kac = CC(=O)NCCCC[C@H](N[*:1])C(=O)[*:2]; Lys(Me3) = C[N+](C)(C)CCCC[C@H](N)C(=O)O; Arg(Me2s) = CN=C(NC)NCCC[C@H](N)C(=O)O; pT = C[C@@H](OP(=O)(O)O)[C@H](N)C(=O)O; Lys(Me2) = CN(C)CCCC[C@H](N)C(=O)O; Lys(Me) = CNCCCC[C@H](N)C(=O)O; Me2a = not defined here; me2a = not defined here

Molecular target: T1, CaBdf1 BD1 (GST-tagged, wild-type) (Candida albicans (strain SC5314 / ATCC …, UniProt Q5A4W8))
T1 chain: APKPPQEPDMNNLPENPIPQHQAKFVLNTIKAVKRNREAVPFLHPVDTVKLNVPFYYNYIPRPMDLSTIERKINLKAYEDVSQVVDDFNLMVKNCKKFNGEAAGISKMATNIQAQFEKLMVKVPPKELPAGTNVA
Test: histone peptide array (Active Motif MODified), 1 uM GST-tagged bromodomain, anti-GST detection, normalized mean intensity

With AR(me2a)TK(Me)QTARKSTGGKAPRKQ (reading uncertain) the binding score was 0.0029.

Work on A[Arg(Me2s)]T[Lys(Me)]QTA[Arg(Me2a)][Lys(Me2)]STGGKAPRKQ yielded a binding score of 0.00471.

ARTKQTARKSTGGKAPRKQ (A R T K Q T A Rme2a Kac pS pT G G K A P R K Q) showed a binding score of 0.00616.

With ARTKQTARKSTGGKAPRKQ (A R T Kme3 Q T A Rme2a Kme2 S T G G K A P R K Q) the binding score was 0.00254.

With ARTKQTARKSTGGKAPRKQ (A Rme2s T Kme3 Q T A Rme2s K S T G G K A P R K Q) the binding score was 0.0029.

Binder A[Arg(Me2s)]T[Lys(Me2)]QTA[Arg(Me2a)][Kac]STGGKAPRKQ has a binding score of 0.0402.

With ARTKQTARKSTGGKAPRKQ (A Rme2a T Kme2 Q T A Rme2a K S T G G K A P R K Q) the binding score was 0.00508.

ARTKQTARKSTGGKAPRKQ (A Rme2a T Kme2 Q T A R Kac S T G G K A P R K Q) showed a binding score of 0.0337.

ARTKQTARKSTGGKAPRKQ (A R T K Q T A Rme2a Kme2 S T G G K A P R K Q) gave a binding score of 0.0029.

ARTKQTARKSTGGKAPRKQ (A R T Kme3 Q T A Rme2a Kme1 S T G G K A P R K Q) was tested, and the binding score was 0.00435.

AR(Me2a)[pT]KQTARKSTGGKAPRKQ (reading uncertain) showed a binding score of 0.00181.

ARTKQTARKSTGGKAPRKQ (A Rme2a T Kme3 Q T A Rme2a K S T G G K A P R K Q) was tested, and the binding score was 0.00363.

ARTKQTARKSTGGKAPRKQ (A R T K Q T A Rme2a K S pT G G K A P R K Q) showed a binding score of 0.00399.

In the case of ARTK(me2)QTAR(me2s)K(me3)STGGKAPRKQ, the binding score is reported as 0.0029.

Work on A[Arg(Me2s)]T[Lys(Me3)]QTA[Arg(Me2a)][Lys(Me3)]STGGKAPRKQ yielded a binding score of 0.00363.

ARTK(me2)QTAR(me2s)K(Me)STGGKAPRKQ was tested, and the binding score was 0.00544.

Binder ARTKQTARKSTGGKAPRKQ (A Rme2s T Kme3 Q T A R Kme1 S T G G K A P R K Q) has a binding score of 0.00471.

ARTKQTARKSTGGKAPRKQ (A Rme2s T Kme2 Q T A Rme2a Kme3 S T G G K A P R K Q) showed a binding score of 0.00508.

A[Arg(Me2s)]TK(Me)QTARK(Me)STGGKAPRKQ showed a binding score of 0.0029.

With ARTK(Me2)QTAR(Me2a)K(Me3)STGGKAPRKQ (reading uncertain) the binding score was 0.00181.

ARTKQTARKSTGGKAPRKQ (A R T K Q T A R Kme3 S T G G Kac A P R K Q) showed a binding score of 0.0225.

ARTKQTARKSTGGKAPRKQ (A Rme2a T Kme1 Q T A Rme2a Kme3 S T G G K A P R K Q) gave a binding score of 0.00435.

ARTKQTARKSTGGKAPRKQ (A Rme2s T Kme3 Q T A Rme2a Kme2 S T G G K A P R K Q) showed a binding score of 0.0029.

ARTKQTARKSTGGKAPRKQ (A R T Kac Q T A Rme2s Kme1 S T G G K A P R K Q) showed a binding score of 0.00508.

ARTKQTARKSTGGKAPRKQ (A R T Kme1 Q T A Rme2s Kme2 S T G G K A P R K Q) showed a binding score of 0.00471.
